Results: patent US10363306B2, “Cytokines and neuroantigens for treatment of immune disorders” (East Carolina University, priority 2009, dated 2019)
Ends that are not written are not given here.

Columns and labels:
Solubility of peptide = type: physicochemical; details: routinely reconstituted in saline
Experimental: A colony of Lewis rats was maintained at East Carolina University School of Medicine. Animal care and use was approved by the Institutional Animal Care and Use Committee and was performed in accordance with approved institutional guidelines. The synthetic peptide gp69-88 ([…]) (SEQ ID NO. 5) was obtained from Quality Controlled Biologicals, Inc. (Hopkinton, Mass.). The purity of gp69-88 was greater than 98%. […] The OX6 anti-I-A (RT1B) IgG1, the R73 anti-TCRβ IgG1, the OX81 anti-IL-4 IgG1, and the OX18 anti-MHC class I glycoproteins (MHC-I) (RT1A) IgG1 were concentrated by ultrafiltration of B cell hybridoma supernatants through Millipore spiral wound membranes (100 kd exclusion). Hybridomas were obtained from the European Collection of Cell Cultures. The B5 IgM anti-MHC-I (RT1A^a,b,l) mAb was purchased from BD Biosciences. FITC-conjugated goat anti-mouse IgG1 was purchased from Southern Biotechnology (Birmingham, Ala.).

BN-GP T cells = test: IFNβ anti-proliferative activity in IL-2 stimulated cultures of BN-GP T cells; type: cell-based, rat; details: expression supernatants, transient transfection of HEK293 cells
Experimental: FIG. 1. The IFNβ-NAg his-tagged fusion protein was biologically active and was purified on nickel resins. (A) To assess whether IFNβ-NAg induced class I MHC expression, thymocytes (5×10^6/ml in complete RPMI) were cultured with or without IFNβ-NAg for 2 days and then were stained with B5 (anti-MHC-I), OX18 (anti-MHC-I), R73 (anti-TCRβ), or OX81 (anti-IL4; isotype control) and were analyzed by flow cytometry. (B) To assess IFNβ-mediated anti-proliferative activity, supernatants from two independently derived IFNβ-NAg expression systems as well as supernatants from several control expression systems were added at designated titrations (x-axis) to IL-2 stimulated cultures of BN-GP T cells. (C) To assess the specificity of anti-proliferative activity, baculovirus supernatants containing IFNβ-NAg were added at designated titrations to cultures of rat (R1T, BN-GP, RsL.11T, RsL.11, or Conal.8D9) or mouse (CTLL) T cells. Proliferative assays (B & C) were pulsed with [^3H]thymidine on the second day of a 3-day culture. (D) Shown is a representative SDS-PAGE analysis of purified IFNβ-NAg.
FIG. 2. Structure-function analysis of the cytokine and NAg domains of IFNβ fusion proteins. (A) Expression supernatants containing designated IFNβ fusion proteins (see Table 2) were added to cultures of BN-GP T cells at designated titrations (x-axis). (B) The IFNβ-EK-NAg-6his or IFNβ-EK-6his fusion genes were inserted into the pCEP4 expression vector (Invitrogen). Inserts were verified by DNA sequencing, and the genes were expressed by transient transfection of HEK293 cells. Independently derived expression systems of IFNβ-EK-NAg-6his or IFNβ-EK-6his (3 each) were compared in the BN-GP T cell anti-proliferative assay. (C) Independently purified preparations (2 each) of each IFN-β fusion protein (IFNβ-NAg from HEK293 cells, IFNβ-NAg from baculovirus, and IFN-β from HEK293 cells) were added at designated concentrations to assess anti-proliferative activity. Two independently purified preparations of the same fusion protein were tested to verify the reliability of activity for each type of protein. The x-axis was based on the exponent of the molar concentration. For example, a concentration of 100 nM was represented as Log [10^−7]=Log10) (10^−7M)=−7 and was plotted by the exponent of −7. For these experiments (A-C), BN-GP T cells were cultured in IL-2. (D) The MBP-specific RsL.11 T cell clone and irradiated splenic APC were cultured with designated concentrations of purified IFNβ-NAg or GPMBP in the presence or absence of the OX6 anti-MHC-II mAb. (E) Five preparations of purified IFNβ-NAg and six preparations of purified IFN-β were tested for antigenic activity in cultures of RsL.11 T cells and irradiated splenic APC.
The RsL.11 MBP-specific clone was a stable, IL-2 dependent line derived from Lewis rats sensitized with rat MBP in CFA (Mannie, M. D., and M. S. Norris. 2001. MHC class-II-restricted antigen presentation by myelin basic protein-specific CD4+ T cells causes prolonged desensitization and outgrowth of CD4-responders. Cell Immunol 212:51-62). The RsL.11T clone was a transformed variant of the RsL.11 clone. […]

| Molecule | solubility (Solubility of peptide) | Biological activity of IFNβ in expression supernatants (BN-GP T cells) |
| --- | --- | --- |
| YGSLPQKSQRSQDENPVVHF [NAg] | freely soluble |  |
| ss-IFNβ-6his: Rat IFNβ with 6-histidine sequence, lacking the EK linker (protein, UniProt P70499 22-184, looked up, C-terminal 6His tag) Interferon beta: IDYKQLQFRQSTSIRTCQKLLRQLNGRLNLSYRTDFKIPMEVMHPSQMEKSYTAFAIQVMLQNVFLVFRSNFSSTGWNETIVESLLDELHQQTELLEIILKEKQEERLTWVTSTTTLGLKSYYWRVQRYLKDKKYNSYAWMVVRAEVFRNFSIILRLNRNFQN |  | Weak activity |
| ss-IFNβ: Rat IFNβ without non-native C-terminal or N-terminal additions (protein, UniProt P70499 22-184, looked up) Interferon beta: IDYKQLQFRQSTSIRTCQKLLRQLNGRLNLSYRTDFKIPMEVMHPSQMEKSYTAFAIQVMLQNVFLVFRSNFSSTGWNETIVESLLDELHQQTELLEIILKEKQEERLTWVTSTTTLGLKSYYWRVQRYLKDKKYNSYAWMVVRAEVFRNFSIILRLNRNFQN |  | Potent activity |
